Reference: patent publication US20210246200A1 (UNIVERSIT T Z RICH, published 2021)
Where a chain is given by its changes, count along the chain named. In names and notes the source's numbering stands.

B1: 104348_VH5D98E_VK1D28Q (antibody, human IgG1, kappa, N297A, V domains shown)
VH: EVQLVQSGAEVKKPGESLKISCKGSGYAFTNYLIEWVRQMPGKGLEWMGVINPGSGGTNYNEKFKGQVTISADKSISTAYLQWSSLKASDTAMYYCARWRGEGYYAYFDVWGQGTTVTVSS
VL: AIRLTQSPSSFSASTGDRVTITCKASQSVDYQGDSYMNWYQQKPGKAPKLLIYAASNLESGVPSRFSGSGSGTDFTLTISSLQSEDFATYYCQQSNEDPYTFGGGTKVEIKR
notes: also called Antibody No: 1; parental antibody
B2: Antibody No: 20 (antibody, human IgG1, kappa, N297A, V domains shown)
VH: B1 VH with N59Y, F108Y
VL: B1 VL with M37L, A54S
notes: VK M33L + A50S; also called 108928
B3: Antibody No: 15 (antibody, human IgG1, kappa, N297A, V domains shown)
VH: B1 VH with N59Y
VL: B1 VL with M37L, A54S
notes: VH N58Y; VK M33L + A50S; also called 108926
B4: Antibody No: 13 (antibody, human IgG1, kappa, N297A, V domains shown)
VH: B1 VH with N59Y
VL: B1 VL with A54S
notes: VH N58Y; VK A50S; also called 108925
B5: 104347 (antibody, V domains shown)
VH: QVQLVESGGGVVQPGRSLRLSCAASGYTFSSYLIEWVRQAPGKGLEWVAVINPGSGGTNYADSVKGRFTISADKSKNTAYLQMNSLRAEDTAVYYCARWRGDGYYAYFDVWGQGTTVTVSS
VL: EIVLTQSPATLSVSPGERATLSCRASQSVSYDGDSYMNWYQQKPGQAPRLLIYAASNLASGIPARFSGSGSGTEFTLTISSLQSEDAAVYYCQQSNEDPYTFGGGTKVEIK
notes: VH3s/VK3s
B6: NARA1 (antibody, mouse IgG2a, kappa, V domains shown)
VH: QVQLQQSGAELVRPGTSVKVSCKASGYAFTNYLIEWVKQRPGQGLEWIGVINPGSGGTNYNEKFKGKATLTADKSSSTAYMQLSSLTSDDSAVYFCARWRGDGYYAYFDVWGAGTTVTVSS
VL: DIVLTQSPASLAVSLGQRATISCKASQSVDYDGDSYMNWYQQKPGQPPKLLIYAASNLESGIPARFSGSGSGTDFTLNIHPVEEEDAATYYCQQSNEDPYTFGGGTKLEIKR
notes: Mouse monoclonal anti-human IL-2 antibody, mouse IgG2a; also called anti-IL-2 (NARA1)-mIgG2a; anti-IL-2 (NARA1)-mouse IgG2a
B7: 104349 (antibody, V domains shown)
VH: B1 VH with E102D
VL: DIVLTQSPLSLPVTLGQPASISCKASQSVDYDGDSYMNWYQQRPGQSPRLLIYAASNLESGVPDRFSGSGSGTDFTLKISRVEAEDVGVYYCQQSNEDPYTFGGGTKVEIK
notes: VH5/VK2
B8: 104348 (antibody, human IgG1, kappa, N297A, V domains shown)
VH: B1 VH with E102D
VL: B1 VL with Q32D
notes: VH5/VK1, human IgG1 N297A
B9: 104343 (antibody, human IgG1, kappa, N297A, V domains shown)
VH: QVQLVQSGAEVKKPGSSVKVSCKASGYAFTNYLIEWVRQAPGQGLEWMGVINPGSGGTNYNEKFKGRVTITADKSTSTAYMELSSLRSEDTAVYYCARWRGDGYYAYFDVWGQGTTVTVSS
VL: DIVLTQSPLSLPVTLGQPASISCKASQSVDYDGDSYMNWYQQRPGQSPRLLIYAASNLESGVPDRFSGSGSGTDFTLKISRVEAEDVGVYYCQQSNEDPYTFGGGTKVEIKR
notes: VH1/VK2, human IgG1 N297A
B10: 104348_VH5_VK1D28Q (antibody, V domains shown)
VH: B1 VH with E102D
VL: AIRLTQSPSSFSASTGDRVTITCKASQSVDYQGDSYMNWYQQKPGKAPKLLIYAASNLESGVPSRFSGSGSGTDFTLTISSLQSEDFATYYCQQSNEDPYTFGGGTKVEIK
notes: Human IgG1 Fc domain with the N297A point mutation
B11: 104349_VH5_VK2D28Q (antibody, V domains shown)
VH: B1 VH with E102D
VL: B7 VL with D32Q
notes: as for B10
B12: 104349_VH5D98E_VK2 (antibody, V domains shown)
VH: B1 VH
VL: B7 VL
notes: as for B10
B13: 104349_VH5D98E_VK2D28Q (antibody, V domains shown)
VH: B1 VH
VL: B7 VL with D32Q
notes: as for B10
B14: 104348_VH5D98E_VK1 (antibody, V domains shown)
VH: B1 VH
VL: B10 VL with Q32D
notes: as for B10
B15: 104343_VH1D98E_VK2D28Q (antibody, V domains shown)
VH: B9 VH with D102E
VL: B7 VL with D32Q
notes: as for B10
B16: 104343_VH1D98E_VK2 (antibody, V domains shown)
VH: B9 VH with D102E
VL: B7 VL
notes: as for B10
B17: 104343_VH1_VK2D28Q (antibody, V domains shown)
VH: B9 VH
VL: B7 VL with D32Q
notes: as for B10

Biological target: T1, Proleukin® (aldesleukin) (human, UniProt P60568 21-153, limits assumed)
T1 construct: Variant of human wt IL-2 with C145S (C125S on mature IL-2); also called IL-2 (Proleukin®); human IL-2 (Proleukin)
Assay: ELISA, coated Proleukin, serially diluted supernatant

T1 sequence (P60568 other isoform, or with tags, fused parts or gaps limits assumed): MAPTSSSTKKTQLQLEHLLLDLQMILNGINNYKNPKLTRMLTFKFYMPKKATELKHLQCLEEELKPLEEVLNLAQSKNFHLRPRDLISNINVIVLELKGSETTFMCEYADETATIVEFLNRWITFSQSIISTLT

| EC50 [nM] | Binder |
| --- | --- |
| 1.04 | B1 |
| 0.27 | B2 |
| 0.28 | B3 |
| 0.19 | B4 |

Biological target: T1, Proleukin® (aldesleukin)
Assay: ELISA, coated Proleukin, HEK293F supernatant 1:2
Protocol: Subsequently, hIL-2 binding efficiency of the antibodies present in the supernatants was determined using ELISA. In brief, ELISA plates (Maxisorp 96-well black microtiter plate) were coated overnight at 4° C. with 100p/well of Proleukin® (5 μg/ml PBS). ELISA plates were washed once with TBST (1×TBS/0.05% Tween 20) using a plate-washer (BioTek). […] After removal of the blocking buffer, plates were washed once with TBST using the plate washer. Supernatants were diluted 1:2 in blocking buffer and 50 μl transferred to the designated well of the ELISA plate. Each sample was present on three ELISA plates. The three plates were incubated at RT under gentle agitation. […] The other two plates were washed either every hour three times with TBST for 4 hours or washed every hour three times for 12 hours before adding the detection antibody. […] Luminescence signal was measured after 5 minutes incubation in the dark. […] All ELISA values are mean values based on two measurements.

| ELISA value (Normal ELISA) [luminescence signal] | ELISA value (wash 3x every hour for 4 HRS) [luminescence signal] | ELISA value (wash 3x every hour for 12 HRS) [luminescence signal] | Binder |
| --- | --- | --- | --- |
| 1180 | 1060 | 717 | B1 |
| 11700 | 11100 | 5200 | B2 |
| 11100 | 10500 | 3800 | B3 |
| 14500 | 14600 | 4520 | B4 |

Biological target: T2, human IL-2 (wildtype) (human, UniProt P60568 21-153)
T2 construct: also called IL-2 (WT); IL-2 wt
Assay: SET assay (solution equilibration titration, MSD)

T2 sequence (P60568 21-153 limits assumed): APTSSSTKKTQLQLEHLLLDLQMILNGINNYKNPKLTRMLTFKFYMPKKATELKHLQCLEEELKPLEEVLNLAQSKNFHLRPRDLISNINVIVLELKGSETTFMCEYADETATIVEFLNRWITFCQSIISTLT

| binding result | Binder |
| --- | --- |
| binds | B5 |
| binds | B6 |
| binds | B7 |
| binds | B8 |
| binds | B9 |

Biological target: T1, Proleukin® (aldesleukin)
Assay: ELISA, coated Proleukin, mean of 3 experiments;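 note: binding of anti-human IL-2 antibodies, tested as an 11-point dilution series for 2 hours, to plate-bound IL-2, detected via streptavidin-HRP with absorbance read at 450 nm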
Protocol: ELISA plates (Corning) were coated with human IL-2 (Proleukin) at 10 μg/mL in PBS overnight at 4° C. The plates were washed 6 times with PBST, then blocked in 1% BSA/PBST for 2 hours. After blocking and washing, the anti-human IL-2 antibodies were added on the plate in an 11-point dilution series in 1% BSA/PBST and incubated for 2 hours. […] The plates were then washed again and incubated with Streptavidin-Horseradish Peroxidase in 1% BSA/PBS for 45 minutes. After washing, the substrate (R&D Systems) was added into the plates and the enzymatic reaction was stopped after 3 minutes by adding Stop Solution. The plates were read by a microplate reader at 450 nm with a wavelength correction set to 540 nm.

| EC50 [nM] | Binder |
| --- | --- |
| 39 | B5 |
| 0.3 | B6 |
| 1.18 | B1 |
| 0.3 | B7 |
| 0.97 | B10 |
| 0.71 | B2 |
| 0.43 | B11 |
| 0.56 | B12 |
| 0.66 | B13 |
| 0.05 | B3 |
| 0.3 | B8 |
| 0.06 | B4 |
| 0.77 | B14 |
| 0.3 | B9 |
| 0.75 | B15 |
| 0.57 | B16 |
| 0.59 | B17 |

Biological target: T1, Proleukin® (aldesleukin)
Assay: SET assay (solution equilibration titration, MSD)
Protocol: A 22 serial 2n dilution of the antigen was prepared in sample buffer. A constant concentration of the antibody was added. […] A volume of 60 μl of each antigen:antibody mix was distributed in duplicates to a 384-well polypropylene microtiter plate (PP MTP). Sample buffer served as negative control and a sample containing no antigen as positive control (Bₘₐₓ). The plate was sealed and incubated overnight (o/n) at room temperature (RT). A 384-well standard MSD array plate was coated o/n with 2 μg/ml of IL-2. After three times washing with washing buffer, the plate was blocked with 50 μl/well blocking buffer for 1 hour at RT. After washing, a volume of 30 μl/well of the antigen:antibody mix was transferred from the PP MTP to the coated MSD plate and incubated for 20 min at RT. After an additional wash step, 30 μl of detection antibody (diluted 1:2000) in sample buffer was added to each well and incubated for 30 min at RT. The MSD plate was washed and 35 μl/well of read buffer was added and incubated for 5 min. ECL signals were measured with the MSD SECTOR Imager 6000.

| Kd [nM] | Binder |
| --- | --- |
| 10 | B5 |
| 0.078 | B6 |
| 0.272 | B1 |
| 0.082 | B7 |
| 0.155 | B10 |
| 0.069 | B11 |
| 0.178 | B12 |
| 0.188 | B13 |
| 0.105 | B8 |
| 0.206 | B14 |
| 0.075 | B9 |
| 0.111 | B15 |
| 0.098 | B16 |
| 0.069 | B17 |
